Data: patent US20220106399A1 (IGM BIOSCIENCES, published 2022)

How the values were obtained:
[1] = molecular target: T1, Recombinant human CD40-Fc (R&D Systems) (human, UniProt P25942 21-193); assay: ELISA, plate coated with 6.25 ng/mL human CD40-Fc, detection with anti-human kappa-HRP; Bmax by one site-specific binding with Hill slope; reference anti-CD40 IgG
T1 construct: also called CD4O-Fc; not shown: Fc part of the bought fusion protein

[2] = molecular target: T1, Recombinant human CD40-Fc (R&D Systems); assay: ELISA, plate coated with 1.6 ng/mL human CD40-Fc, detection with anti-human kappa-HRP; Bmax by one site-specific binding with Hill slope; reference anti-CD40 IgG
[3] = molecular target: T1, Recombinant human CD40-Fc (R&D Systems); assay: ELISA on coated human CD40-Fc (1.6 and 6.25 ng/mL)
Experimental: The binding specificity of anti-CD40 IgM and anti-CD40 IgG were measured in an ELISA assay using two different antigen densities by the following method. […] All subsequent washes used PBS+0.05% Tween and all incubation steps were performed in block buffer (2% BSA in PBS). Plates were washed three times, blocked for one hour, and then washed again. The plates were then incubated for one hour with four-fold dilutions of anti-CD40-IgG and anti-CD40-IgM. After washing, the plates were incubated with a 1:6000 dilution of anti-human kappa-HRP (Southern Biotech #9230-05) in blocking buffer for 1 hour at room temperature. The plates were again washed 5 times, and then incubated with TMB substrate (BD Biosciences #555214) for 20 minutes at room temperature. The reaction was stopped with 1M H₂SO₄ and absorbance at 450 nm was read on a SpectraMax340 plate reader (Molecular Devices) using SoftMax Pro software.
Bmax was then calculated at each coating density in GraphPad Prism software using One site-Specific binding with Hill slope. […] IgM is thus more sensitive in detecting low CD40 levels than IgG.

T1 sequence (P25942 21-193 limits assumed): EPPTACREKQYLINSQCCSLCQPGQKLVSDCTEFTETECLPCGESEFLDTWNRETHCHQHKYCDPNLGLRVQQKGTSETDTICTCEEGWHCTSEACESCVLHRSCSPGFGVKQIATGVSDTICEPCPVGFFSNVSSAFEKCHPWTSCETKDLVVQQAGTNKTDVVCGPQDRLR

Row | fold better binding than anti-CD40 IgG (ratio of Bmax) [1] | fold better binding than anti-CD40 IgG (ratio of Bmax) [2] | binding result [3] | Binder
1 | ~2.3 fold | ~5.5 fold |  | anti-CD40 IgM (antibody, V domains shown) VH: EVQLQQSGPDLVKPGASVKISCKTSGYTFTEYIMHWVKQSHGNSLEWIGGIIPNNGGTSYNQKFKDKATMTVDKSSSTGYMELRSLTSEDSAVYYCTRREVYGRNYYALDYWGQGTLVTVSS VL: DIQMTQTTSSLSASLGDRVTITCSASQGINNYLNWYQQKPDGTVKLLIYYTSSLHSGVPSRFSGSGSGTDYSLTISNLEPEDIATYYCQQYSNLPYTFGGGTKLEIK
2 |  |  | binds | anti-CD40 IgG (antibody, V domains shown, detection was with anti-human kappa) VH: EVQLQQSGPDLVKPGASVKISCKTSGYTFTEYIMHWVKQSHGNSLEWIGGIIPNNGGTSYNQKFKDKATMTVDKSSSTGYMELRSLTSEDSAVYYCTRREVYGRNYYALDYWGQGTLVTVSS VL: DIQMTQTTSSLSASLGDRVTITCSASQGINNYLNWYQQKPDGTVKLLIYYTSSLHSGVPSRFSGSGSGTDYSLTISNLEPEDIATYYCQQYSNLPYTFGGGTKLEIK
